Results on one molecule are retold here after patent publication US20240033291A1.

The target in test [1] is mesothelin on the cell membrane of the pancreatic cancer cell line AsPC-1 (mesothelin-overexpressing cell line) (human) (UniProt Q13421). The experiment in a line: flow cytometry, phage on AsPC-1 cells, anti-M13-FITC.
For test [2] the target is unchanged. Kind of test: flow cytometry, phage on AsPC-1 cells against K562 control cells, anti-M13-FITC. (In flow cytometry, cells or beads pass a laser one at a time.)

B1: MSLN3 phage clone (scFv displayed on phage, KBIO human synthetic scFv phage display library KscFv-I) (scFv, V domains shown, not shown: small tags and cut ends; large carriers)
VH: EVQLVESGGGLVQPGGSLRLSCAASGFTFSDYAMSWVRQAPGKGLEWVSAISSSGGTTYYADSVKGRFTISRDNSKNTLYLQMNSLRAEDTAVYYCAKEEEGEWREYFDVWGQGTLVTVSS
VL: DIQMTQSPSSLSASVGDRVTITCRASQSISSYLNWYQQKPGKAPKLLIYATSTLQSGVPSRFSGSGSGTDFTLTISSLQPEDFATYYCQQSYTFPYTFGQGTKVEIK
As to B1, the relative peak shift value was more than 3% in test [1] and 23.8% in test [2].
